In the supplement of paper PMC10567573:

B1: SFRS1 (parent)
chain: RDIDLKNRRGGPPFAFVEFEDPRD

Variants of: B1
Assay: protein stability index of a GFP-peptide fusion (GPS, HEK-293T) (PSI 1-6); higher = more stable
Details: c terminus: a fixed tail appended
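Note: lentivirally expressed fusions sorted by FACS into six bins by GFP to DsRed ratio, PSI derived from sequencing read proportions per bin multiplied by bin number.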

Protein stability index: each site, then its substitutions
R23: C 3.67, A 3.88
E20: G 3.14, D 3.94, L 2.71, A 3.06, V 3.02, P 3.66, C 2.67, N 3.68, M 2.57, K 3.52, H 3.21, Y 2.46, T 3.3, F 2.67, I 2.56, S 2.89, Q 2.91, R 2.91, W 2.72
F19: G 4.03, C 3.05, H 3.95, Y 4.11, W 3.39, P 3.85, E 4.77, Q 3.94, I 3.27, R 3.38, L 4.22, A 2.95, K 3.18, T 3.47, M 3.19, V 3.03, S 3.19, D 3.69, N 3.38
E18: R 3.13, H 2.51, Q 2.53, N 3.24, W 1.88, V 2.2, C 2.4, P 2.99, D 3.22, F 1.81, I 2.24, Y 2.3, S 2, K 2.64, G 2.77, A 2.18, L 1.9, M 2.35, T 2.74
A15: M 3.84, W 3.7, Y 3.56, I 3.42, F 3.12, C 3.83, V 3.58, L 3.76, H 4.46, K 4.56, T 4.54, S 4.22, R 2.25, E 5.13, D 4.44, Q 4.79, N 4.73, G 4.63, P 4.31
F14: T 4.9, R 4.66, Q 5.27, V 4.55, M 4.26, P 5.05, L 3.92, Y 4.28, I 4.37, S 5.3, N 4.58, K 4.51, W 3.77
V17: D 4.77, K 4.62, L 4.13, A 4.35, G 4.43, M 4.24, Y 4.42, C 4.2, R 4.33, Q 4.61, P 4.63, F 4.64, S 4.16, N 4.62, I 3.97, H 4.38, E 4.95, T 4.75, W 3.92
F16: W 3.97, E 5.2, C 4.45, L 4.81, N 4.91, V 4.62, S 4.7, I 4.36, Q 5, K 4.89, P 5.26, G 5.32, T 4.96, A 5.03, M 4.88, R 5, H 4.77, Y 4.26, D 5.04
D21: I 2.63, P 3.45, R 3.08, W 2.95, Q 3.54, G 2.55, V 3.02, L 2.51, C 2.73, A 3.1, K 3.73, Y 3.18, E 3.99, S 3.26, H 3.34, T 3.72, F 2.65, M 2.8, N 3.38
P22: C 3.8, N 4.15, K 4.09, L 3.19, G 4.03, T 3.99, I 3.94, W 3.55, Y 3.58, Q 4.44, F 2.9, A 3.93, S 3.93, H 3.63, D 4.5, M 3.76, E 4.43, R 3.62, V 3.76
